Residue numbers refer to the chain shown, from its start.
target: T1, APBA2_1, Q99767; assay: holdup assay; parameters: key: below the threshold = too weak to quantify, mostly under pKd 3.1 to 4; conditions: plain residues with an end cap or a label only (N-terminal biotin on a linker: ado-ado)
T1 sequence (Q99767 563-664, limits assumed, looked up): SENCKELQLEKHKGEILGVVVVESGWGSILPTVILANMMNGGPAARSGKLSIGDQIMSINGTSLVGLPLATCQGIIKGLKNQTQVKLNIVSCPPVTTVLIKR

Binder | pKd
ARSAAASNYV [CLDN4, O14493] | below the threshold
QRPYRRGSEI [KCNJ18, B7U540] | below the threshold

target: ARHGEF12, Q9NZN5-2; assay: holdup assay; parameters: key: below the threshold = too weak to quantify, mostly under pKd 3.1 to 4; conditions: plain residues with an end cap or a label only (N-terminal biotin on a linker: ado-ado)
Sequence (Q9NZN5 other isoform, or with tags, fused parts or gaps): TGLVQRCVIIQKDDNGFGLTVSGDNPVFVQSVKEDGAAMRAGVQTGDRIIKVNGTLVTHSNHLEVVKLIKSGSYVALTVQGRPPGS

Binder | pKd
ARSAAASNYV [CLDN4, O14493] | 3.73
QRPYRRGSEI [KCNJ18, B7U540] | 3.74

target: T2, DLG3_1, Q92796; assay: holdup assay; parameters: key: below the threshold = too weak to quantify, mostly under pKd 3.1 to 4; conditions: plain residues with an end cap or a label only (N-terminal biotin on a linker: ado-ado)
T2 sequence (Q92796 125-227, limits assumed, looked up): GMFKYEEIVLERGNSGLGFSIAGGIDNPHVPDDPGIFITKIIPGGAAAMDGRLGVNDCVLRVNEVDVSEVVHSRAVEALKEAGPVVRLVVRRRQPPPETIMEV

Binder | pKd
ARSAAASNYV [CLDN4, O14493] | below the threshold
QRPYRRGSEI [KCNJ18, B7U540] | below the threshold

target: T3, DLG3_2, Q92796; assay: holdup assay; parameters: key: below the threshold = too weak to quantify, mostly under pKd 3.1 to 4; conditions: plain residues with an end cap or a label only (N-terminal biotin on a linker: ado-ado)
T3 sequence (Q92796 221-321, limits assumed, looked up): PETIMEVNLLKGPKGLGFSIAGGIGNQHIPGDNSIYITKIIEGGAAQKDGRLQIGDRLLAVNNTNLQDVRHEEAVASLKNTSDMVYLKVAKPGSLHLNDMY

Binder | pKd
ARSAAASNYV [CLDN4, O14493] | below the threshold
QRPYRRGSEI [KCNJ18, B7U540] | 4.14

target: T4, DVL3, Q92997; assay: holdup assay; parameters: key: below the threshold = too weak to quantify, mostly under pKd 3.1 to 4; conditions: plain residues with an end cap or a label only (N-terminal biotin on a linker: ado-ado)
T4 sequence (Q92997 244-331, limits assumed, looked up): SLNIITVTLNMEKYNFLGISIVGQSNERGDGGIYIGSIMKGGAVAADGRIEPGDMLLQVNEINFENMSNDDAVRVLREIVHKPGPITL

Binder | pKd
ARSAAASNYV [CLDN4, O14493] | 3.66
QRPYRRGSEI [KCNJ18, B7U540] | below the threshold

target: T5, FRMPD1, Q5SYB0; assay: holdup assay; parameters: key: below the threshold = too weak to quantify, mostly under pKd 3.1 to 4; conditions: plain residues with an end cap or a label only (N-terminal biotin on a linker: ado-ado)
T5 sequence (Q5SYB0 52-145, limits assumed, looked up): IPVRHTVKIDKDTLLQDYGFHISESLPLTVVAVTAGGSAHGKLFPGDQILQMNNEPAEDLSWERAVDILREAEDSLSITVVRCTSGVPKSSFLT

Binder | pKd
ARSAAASNYV [CLDN4, O14493] | below the threshold
QRPYRRGSEI [KCNJ18, B7U540] | below the threshold

target: FRMPD2_2, Q68DX3; assay: holdup assay; parameters: key: below the threshold = too weak to quantify, mostly under pKd 3.1 to 4; conditions: plain residues with an end cap or a label only (N-terminal biotin on a linker: ado-ado)
Sequence (Q68DX3 944-1038): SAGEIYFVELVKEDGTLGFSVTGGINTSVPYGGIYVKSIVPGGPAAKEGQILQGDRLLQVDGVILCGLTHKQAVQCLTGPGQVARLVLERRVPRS

Binder | pKd
ARSAAASNYV [CLDN4, O14493] | below the threshold
QRPYRRGSEI [KCNJ18, B7U540] | 3.73

target: GORASP2, Q9H8Y8; assay: holdup assay; parameters: key: below the threshold = too weak to quantify, mostly under pKd 3.1 to 4; conditions: plain residues with an end cap or a label only (N-terminal biotin on a linker: ado-ado)

Binder | pKd
ARSAAASNYV [CLDN4, O14493] | 4.01
QRPYRRGSEI [KCNJ18, B7U540] | below the threshold

target: GRID2IP_1, A4D2P6; assay: holdup assay; parameters: key: below the threshold = too weak to quantify, mostly under pKd 3.1 to 4; conditions: plain residues with an end cap or a label only (N-terminal biotin on a linker: ado-ado)
Sequence (A4D2P6 1-87): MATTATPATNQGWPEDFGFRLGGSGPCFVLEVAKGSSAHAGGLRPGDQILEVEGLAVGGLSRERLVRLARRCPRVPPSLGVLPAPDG

Binder | pKd
ARSAAASNYV [CLDN4, O14493] | below the threshold
QRPYRRGSEI [KCNJ18, B7U540] | below the threshold

target: T6, GRIP1_2, Q9Y3R0; assay: holdup assay; parameters: key: below the threshold = too weak to quantify, mostly under pKd 3.1 to 4; conditions: plain residues with an end cap or a label only (N-terminal biotin on a linker: ado-ado)
T6 sequence (Q9Y3R0 145-248, limits assumed, looked up): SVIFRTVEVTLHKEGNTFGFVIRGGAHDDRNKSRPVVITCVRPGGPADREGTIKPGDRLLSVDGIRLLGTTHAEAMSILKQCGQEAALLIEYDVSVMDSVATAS

Binder | pKd
ARSAAASNYV [CLDN4, O14493] | below the threshold
QRPYRRGSEI [KCNJ18, B7U540] | below the threshold

target: HTRA1, Q92743; assay: holdup assay; parameters: key: below the threshold = too weak to quantify, mostly under pKd 3.1 to 4; conditions: plain residues with an end cap or a label only (N-terminal biotin on a linker: ado-ado)
Sequence (Q92743 360-477): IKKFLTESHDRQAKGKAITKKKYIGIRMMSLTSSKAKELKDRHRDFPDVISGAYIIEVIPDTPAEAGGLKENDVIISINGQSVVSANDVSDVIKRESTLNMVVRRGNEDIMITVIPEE

Binder | pKd
ARSAAASNYV [CLDN4, O14493] | 4.17
QRPYRRGSEI [KCNJ18, B7U540] | 3.85

target: HTRA2, O43464; assay: holdup assay; parameters: key: below the threshold = too weak to quantify, mostly under pKd 3.1 to 4; conditions: plain residues with an end cap or a label only (N-terminal biotin on a linker: ado-ado)
Sequence (O43464 355-458): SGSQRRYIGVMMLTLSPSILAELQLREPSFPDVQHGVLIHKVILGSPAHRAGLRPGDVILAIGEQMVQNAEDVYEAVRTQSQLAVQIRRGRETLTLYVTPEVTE

Binder | pKd
ARSAAASNYV [CLDN4, O14493] | below the threshold
QRPYRRGSEI [KCNJ18, B7U540] | below the threshold

target: IL16_4, Q14005; assay: holdup assay; parameters: key: below the threshold = too weak to quantify, mostly under pKd 3.1 to 4; conditions: plain residues with an end cap or a label only (N-terminal biotin on a linker: ado-ado)
Sequence (Q14005 1229-1329): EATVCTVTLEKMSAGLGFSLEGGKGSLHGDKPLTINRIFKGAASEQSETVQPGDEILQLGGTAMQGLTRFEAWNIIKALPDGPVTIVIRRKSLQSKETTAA

Binder | pKd
ARSAAASNYV [CLDN4, O14493] | below the threshold
QRPYRRGSEI [KCNJ18, B7U540] | below the threshold

target: Inadl_8, Q8NI35; assay: holdup assay; parameters: key: below the threshold = too weak to quantify, mostly under pKd 3.1 to 4; conditions: plain residues with an end cap or a label only (N-terminal biotin on a linker: ado-ado)
Sequence (Q8NI35 1425-1530): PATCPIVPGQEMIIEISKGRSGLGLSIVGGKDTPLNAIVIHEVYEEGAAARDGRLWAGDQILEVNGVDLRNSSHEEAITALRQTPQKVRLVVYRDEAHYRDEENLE

Binder | pKd
ARSAAASNYV [CLDN4, O14493] | 4.06
QRPYRRGSEI [KCNJ18, B7U540] | 3.69

target: LAP2, Q96RT1; assay: holdup assay; parameters: key: below the threshold = too weak to quantify, mostly under pKd 3.1 to 4; conditions: plain residues with an end cap or a label only (N-terminal biotin on a linker: ado-ado)
Sequence (Q96RT1 other isoform, or with tags, fused parts or gaps): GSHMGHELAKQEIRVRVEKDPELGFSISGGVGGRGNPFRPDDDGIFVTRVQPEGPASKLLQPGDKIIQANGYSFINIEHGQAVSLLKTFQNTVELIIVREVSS

Binder | pKd
ARSAAASNYV [CLDN4, O14493] | below the threshold
QRPYRRGSEI [KCNJ18, B7U540] | 4.09

target: T7, LIN7A, O14910; assay: holdup assay; parameters: key: below the threshold = too weak to quantify, mostly under pKd 3.1 to 4; conditions: plain residues with an end cap or a label only (N-terminal biotin on a linker: ado-ado)
T7 sequence (O14910 103-200, limits assumed, looked up): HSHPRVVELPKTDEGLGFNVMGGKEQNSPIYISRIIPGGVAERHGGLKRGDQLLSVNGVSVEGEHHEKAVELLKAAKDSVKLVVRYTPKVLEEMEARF

Binder | pKd
ARSAAASNYV [CLDN4, O14493] | below the threshold
QRPYRRGSEI [KCNJ18, B7U540] | below the threshold

target: T8, LIN7B, Q9HAP6; assay: holdup assay; parameters: key: below the threshold = too weak to quantify, mostly under pKd 3.1 to 4; conditions: plain residues with an end cap or a label only (N-terminal biotin on a linker: ado-ado)
T8 sequence (Q9HAP6 88-185, limits assumed, looked up): T7 sequence (O14910 103-200, limits assumed, looked up) with S2A, V20I, I35V, E42D, H65Q, K77Q, D78G, K89R

Binder | pKd
ARSAAASNYV [CLDN4, O14493] | below the threshold
QRPYRRGSEI [KCNJ18, B7U540] | 3.62

target: LNX1_3, Q8TBB1; assay: holdup assay; parameters: key: below the threshold = too weak to quantify, mostly under pKd 3.1 to 4; conditions: plain residues with an end cap or a label only (N-terminal biotin on a linker: ado-ado)
Sequence (Q8TBB1 500-596): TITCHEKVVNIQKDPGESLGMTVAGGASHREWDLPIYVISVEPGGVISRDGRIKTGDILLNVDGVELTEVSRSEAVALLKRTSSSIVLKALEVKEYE

Binder | pKd
ARSAAASNYV [CLDN4, O14493] | below the threshold
QRPYRRGSEI [KCNJ18, B7U540] | below the threshold

target: T9, MPP6, Q9NZW5; assay: holdup assay; parameters: key: below the threshold = too weak to quantify, mostly under pKd 3.1 to 4; conditions: plain residues with an end cap or a label only (N-terminal biotin on a linker: ado-ado)
T9 sequence (Q9NZW5 125-219, limits assumed, looked up): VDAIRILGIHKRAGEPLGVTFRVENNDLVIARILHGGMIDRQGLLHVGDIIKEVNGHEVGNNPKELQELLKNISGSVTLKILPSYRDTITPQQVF

Binder | pKd
ARSAAASNYV [CLDN4, O14493] | below the threshold
QRPYRRGSEI [KCNJ18, B7U540] | below the threshold

target: NHERF4_1, Q86UT5-2; assay: holdup assay; parameters: key: below the threshold = too weak to quantify, mostly under pKd 3.1 to 4; conditions: plain residues with an end cap or a label only (N-terminal biotin on a linker: ado-ado)
Sequence (Q86UT5 other isoform, or with tags, fused parts or gaps): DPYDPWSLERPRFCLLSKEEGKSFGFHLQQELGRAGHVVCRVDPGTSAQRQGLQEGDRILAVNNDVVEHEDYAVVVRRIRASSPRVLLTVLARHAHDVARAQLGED

Binder | pKd
ARSAAASNYV [CLDN4, O14493] | 3.7
QRPYRRGSEI [KCNJ18, B7U540] | below the threshold

target: T10, PCLO, Q9Y6V0; assay: holdup assay; parameters: key: below the threshold = too weak to quantify, mostly under pKd 3.1 to 4; conditions: plain residues with an end cap or a label only (N-terminal biotin on a linker: ado-ado)
T10 sequence (Q9Y6V0 4491-4600, limits assumed, looked up): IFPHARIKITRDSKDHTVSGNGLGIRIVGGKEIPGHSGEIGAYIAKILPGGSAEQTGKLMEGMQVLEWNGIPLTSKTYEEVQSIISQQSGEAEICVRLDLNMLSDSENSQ

Binder | pKd
ARSAAASNYV [CLDN4, O14493] | below the threshold
QRPYRRGSEI [KCNJ18, B7U540] | below the threshold

target: PDLIM1, O00151; assay: holdup assay; parameters: key: below the threshold = too weak to quantify, mostly under pKd 3.1 to 4; conditions: plain residues with an end cap or a label only (N-terminal biotin on a linker: ado-ado)
Sequence (O00151 1-87): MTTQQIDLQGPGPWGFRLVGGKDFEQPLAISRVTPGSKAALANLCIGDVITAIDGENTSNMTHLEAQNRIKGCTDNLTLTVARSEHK

Binder | pKd
ARSAAASNYV [CLDN4, O14493] | below the threshold
QRPYRRGSEI [KCNJ18, B7U540] | below the threshold

target: T11, PDZRN3_1, Q9UPQ7; assay: holdup assay; parameters: key: below the threshold = too weak to quantify, mostly under pKd 3.1 to 4; conditions: plain residues with an end cap or a label only (N-terminal biotin on a linker: ado-ado)
T11 sequence (Q9UPQ7 244-349, limits assumed, looked up): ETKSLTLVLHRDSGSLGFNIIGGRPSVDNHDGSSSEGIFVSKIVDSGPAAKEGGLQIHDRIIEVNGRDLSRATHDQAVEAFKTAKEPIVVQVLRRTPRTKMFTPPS

Binder | pKd
ARSAAASNYV [CLDN4, O14493] | below the threshold
QRPYRRGSEI [KCNJ18, B7U540] | below the threshold

target: SCRIB_3, Q14160; assay: holdup assay; parameters: key: below the threshold = too weak to quantify, mostly under pKd 3.1 to 4; conditions: plain residues with an end cap or a label only (N-terminal biotin on a linker: ado-ado)
Sequence (Q14160 999-1103): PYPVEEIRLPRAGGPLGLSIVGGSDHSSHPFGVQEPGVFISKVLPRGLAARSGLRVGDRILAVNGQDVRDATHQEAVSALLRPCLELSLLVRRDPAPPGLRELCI

Binder | pKd
ARSAAASNYV [CLDN4, O14493] | below the threshold
QRPYRRGSEI [KCNJ18, B7U540] | 4.05

target: T12, SNTG1, Q9NSN8; assay: holdup assay; parameters: key: below the threshold = too weak to quantify, mostly under pKd 3.1 to 4; conditions: plain residues with an end cap or a label only (N-terminal biotin on a linker: ado-ado)
T12 sequence (Q9NSN8 52-150, limits assumed, looked up): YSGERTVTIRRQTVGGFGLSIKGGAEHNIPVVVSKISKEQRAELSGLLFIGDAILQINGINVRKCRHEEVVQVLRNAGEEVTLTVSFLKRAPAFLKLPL

Binder | pKd
ARSAAASNYV [CLDN4, O14493] | below the threshold
QRPYRRGSEI [KCNJ18, B7U540] | below the threshold

target: TJP1_3, Q07157; assay: holdup assay; parameters: key: below the threshold = too weak to quantify, mostly under pKd 3.1 to 4; conditions: plain residues with an end cap or a label only (N-terminal biotin on a linker: ado-ado)
Sequence (Q07157 416-512): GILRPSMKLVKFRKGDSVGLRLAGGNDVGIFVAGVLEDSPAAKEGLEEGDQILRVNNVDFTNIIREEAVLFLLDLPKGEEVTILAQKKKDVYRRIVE

Binder | pKd
ARSAAASNYV [CLDN4, O14493] | below the threshold
QRPYRRGSEI [KCNJ18, B7U540] | below the threshold

From paper PMC9482650, “Quantitative fragmentomics allow affinity mapping of interactomes” (Nature Communications, 2022)
